The values below come from patent US20240374671A1 (ACCELERON PHARMA, published 2024).

Test [1] concerns the target T1, monomeric hActRIIB (human, UniProt Q13705 25-130, limits assumed).
T1 construct: also called ActRIIB MONOMER; ActRIIB monomer
T1 sequence: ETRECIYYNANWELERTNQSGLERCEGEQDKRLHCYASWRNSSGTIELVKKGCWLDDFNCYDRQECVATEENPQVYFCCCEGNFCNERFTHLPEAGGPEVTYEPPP
The test can be described thus: SPR (Biacore), 37 C. Background: In SPR one partner is held on a chip, and binding of the other changes the refractive index at the surface.

Test [2] addresses T2, dimeric hActRIIB (human, UniProt Q13705 25-130).
T2 construct: also called ActRIIB DIMER; ActRIIB dimer
T2 sequence: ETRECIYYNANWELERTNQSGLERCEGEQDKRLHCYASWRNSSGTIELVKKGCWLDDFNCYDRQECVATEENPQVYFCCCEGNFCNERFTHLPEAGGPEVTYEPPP
The test can be described thus: SPR (Biacore), 37 C.

For test [3], the target named is T3, monomeric hActRIIA (human, UniProt P27037 21-138, limits assumed).
T3 construct: also called ActRIIA MONOMER; ActRIIA monomer
T3 sequence (P27037 21-138 limits assumed): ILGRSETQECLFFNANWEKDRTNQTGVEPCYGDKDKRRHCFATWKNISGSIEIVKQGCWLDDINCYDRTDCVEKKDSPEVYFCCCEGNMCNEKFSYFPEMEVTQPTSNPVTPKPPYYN
Put plainly: SPR (BIACORE), 37 C, series of concentrations (not printed on the sheet).

Test [4] deals with T4, dimeric hActRIIA (human, UniProt P27037 21-138).
T4 construct: also called ActRIIA DIMER; ActRIIA dimer
T4 sequence (P27037 21-138): as the sequence (P27037 21-138 limits assumed) above
The test is described as above.

The target of test [5] is T5, human ActRIIB ECD (peptide library) (human, UniProt Q13705 25-130).
T5 construct: also called AcRIIB
T5 sequence: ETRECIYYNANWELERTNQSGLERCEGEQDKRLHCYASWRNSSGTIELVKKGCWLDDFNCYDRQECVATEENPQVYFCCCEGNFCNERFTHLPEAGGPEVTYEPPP
The test can be described thus: Pepscan peptide library ELISA (linear 15-mers and CLIPS). Here is the method:
Mapping of the ActRIIB and ActRIIA ECD epitopes recognized by the antibodies was performed by Pepscan Presto BV using custom made peptide libraries. Sequences of ECDs of human ActRIIB and ActRIIA were converted into libraries of overlapping linear 15-mers and circularized 15-mer CLIPS using combinatorial matrix design. CLIPS (Chemical Linkage of Peptides onto Scaffolds) technology structurally fixes peptides into defined three-dimensional structures (single, double, triple, etc. loops) creating functional mimics of complex binding sites. Peptides were synthesized on solid support. Binding of antibodies to each of the synthesized peptides was tested by ELISA and binding affinities were quantified. Peptide constructs representing both parts of the discontinuous epitope in the correct conformation bind specific antibody with the highest affinity. […] Each peptide was given a score based on affinity.
(In general: An ELISA detects its analyte on a solid surface through an enzyme-linked reagent.)

The target of test [6] is T3, monomeric hActRIIA. The test can be described thus: SPR (Biacore), 37 C.
The target in test [7] is T4, dimeric hActRIIA. The test can be described thus: SPR (Biacore), 37 C.
The target in test [8] is T1, monomeric hActRIIB. The test can be described thus: SPR (Biacore), 37 C. The source holds these as a separate data set.
The target of test [9] is T2, dimeric hActRIIB. Put plainly: SPR (Biacore), 37 C. The source holds these as a separate data set.
In test [10] the target is T3, monomeric hActRIIA. The test can be described thus: SPR (Biacore), 37 C. This is another data set of the same source.
Test [11] concerns the target T4, dimeric hActRIIA. The test can be described thus: SPR (Biacore), 37 C. This is another data set of the same source.
Test [12] has as its target T1, monomeric hActRIIB. Put plainly: SPR (Biacore), 37 C, mAb captured on anti-hFc chip, receptor injected, 1:1 fit. Here is the method:
(§1) Kinetic characterization of A01 antibody lineage (A01 (naïve parent), B01, C01, D01, E01 and F01) binding to monomeric and dimeric hActRIIB and hActRIIA was performed using standard BIACORE®-based analysis at 37° C. In brief, antibodies were captured on anti-hFcIgG Biacore chips and different concentrations of dimeric and monomeric ActRIIB or ActRIIA were injected in duplicates over the captured antibody and control surface. To obtain kinetic rate constants the data were double referenced and fit to a 1:1 interaction model using BiaEvaluation software (GE Healthcare). The equilibrium binding constant KD was determined by the ratio of binding rate constants kd/kₐ

Test [13] has as its target T2, dimeric hActRIIB. The test is described as above. How it is done:
as §1

Test [14] deals with T3, monomeric hActRIIA. The test can be described thus: SPR (BIACORE), 37 C, series of concentrations (not printed on the sheet). How it is done:
(§2) FIGS. 1A-1N depict kinetic characterization of A01 lineage antibodies binding to hActRIIB and hActRIIA as determined by BIACORE®-based analysis at 37° C. Monomeric or dimeric hActRIIB or hActRIIA was […]. FIGS. 1A-1D depict characterization of antibody A01 (parent) binding to ActRIIB monomer (FIG. 1A), ActRIIB dimer (FIG. 1B), ActRIIA monomer (FIG. 1C), and ActRIIA dimer (FIG. 1D). FIGS. 1E and 1F depict characterization of antibody B01 binding to ActRIIB monomer (FIG. 1E) and ActRIIB dimer (FIG. 1F). FIGS. 1G-1H depict antibody C01 binding to ActRIIB monomer (FIG. 1G) and ActRIIB dimer (FIG. 1H). FIGS. 1I-1J depict antibody D01 binding to ActRIIB monomer (FIG. 1I) and ActRIIB dimer (FIG. 1J). FIGS. 1K-1L depict antibody E01 binding to ActRIIB monomer (FIG. 1K) and ActRIIB dimer (FIG. 1L). FIGS. 1M-1N depict antibody F01 binding to ActRIIB monomer (FIG. 1M) and ActRIIB dimer (FIG. 1N).
(§3) Kinetic characterization of A01 antibody lineage (A01 (naïve parent), B01, C01, D01, E01 and F01) binding to monomeric and dimeric hActRIIB and hActRIIA was performed using standard BIACORE®-based analysis at 37° C. […] The equilibrium binding constant KD was determined by the ratio of binding rate constants kd/kₐ
The source holds these as a separate data set.

Test [15] addresses T4, dimeric hActRIIA. The test is described as above. How it is done: as §2, §3
The source holds these as a separate data set.

For test [16], the target named is T3, monomeric hActRIIA. Put plainly: SPR (Biacore), 37 C. Here is the method:
(§4) Kinetic characterization of G02 antibody binding to monomeric and dimeric hActRIIB and hActRIIA was performed using standard BIACORE®-based analysis at 37° C. FIGS. 8A-8D show kinetic characterization of G02 antibody binding to monomeric and dimeric hActRIIB and hActRIIA (FIG. 8A-8D, respectively) as determined by BIACORE®-based analysis at 37° C.
The source holds these as a separate data set.

Test [17] deals with T4, dimeric hActRIIA. The test can be described thus: SPR (Biacore), 37 C. How it is done: as §4
The source holds these as a separate data set.

In test [18] the target is T1, monomeric hActRIIB. The test can be described thus: SPR (BIACORE), 37 C, series of concentrations (not printed on the sheet). How it is done:
as §4

For test [19], the target named is T2, dimeric hActRIIB. The description is as above. How it is done:
as §4

B1: G01 (antibody, human IgG1, kappa, V domains shown)
VH: QLQLQESGPGLVKPSETLSLTCTVSGGSISSSSYAWGWIRQPPGKGLEWIGSIYYSGSTYYNPSLKSRVTISVDTSKNQFSLKLSSVTAADTAVYYCARAGKYRWHGMDVWGQGTTVTVSS
VL: DIQMTQSPSSVSASVGDRVTITCRASQGISSWLAWYQQKPGKAPKLLIYAASNLQSGVPSRFSGSGSGTDFTLTISSLQPEDFATYYCQQAPDLPITFGGGTKVEIKR
notes: Human IgG; also called G01 Parent; G01 (naïve parent)
With B1, the Kd (commonly a measure of binding affinity in units of concentration) is 16.8 nM in test [1] and 1.14 nM in test [2]. In addition, the off-rate (koff) (commonly the first-order rate constant of dissociation) in [1] came to 0.0152 s⁻¹; in [2], 0.00022 s⁻¹. The kon (as a rule, a measure of how fast the partners come together) in test [1] stood at 905000 M⁻¹ s⁻¹; in [2], 176000 M⁻¹ s⁻¹. The binding result in test [3] and in test [4] was “no binding” throughout.

B2: I01 (antibody, human IgG4 S228P, kappa, V domains shown)
VH: EVQLLESGGGLVQPGGSLRLSCAASGFTFGSYGMTWVRQAPGKGLEWVSVISGSGGGTYYADSVKGRFTISRDNSKNTLYLQMNSLRAEDTAVYYCAKGPRIVGMDVWGQGTTVTVSS
VL: DIQMTQSPSSVSASVGDRVTITCRASQGISSWLAWYQQKPGKAPKLLIYAASSLQSGVPSRFSGSGSGTDFTLTISSLQPEDFATYYCQQVFSYPLTFGGGTKVEIKR
As to B2, the binding result in test [5] is recorded as “binds”.

B3: H01 (antibody, human IgG1, kappa, V domains shown)
VH: QVQLQESGPGLVKPSETLSLTCAVSGYSISSGVYWMWIRQPPGKGLEWIGSIVHSGHTYYNPSLKSRVTISVDTSKNQFSLKLSSVTAADTAVYYCARAGKYRWHGMDVWGQGTTVTVSS
VL: DIQMTQSPSSVSASVGDRVTITCRASQGISSWLAWYQQKPGKAPKLLIYAASNLQSGVPSRFSGSGSGTDFTLTISSLQPEDFATYYCQQAPDLPITFGGGTKVEIKR
notes: Human IgG
Consider B3, for which the Kd in test [1] was 11.8 nM; in test [2] it was 0.353 nM. The values for the koff in test [1] and in [2] were 0.023 s⁻¹ and 0.000127 s⁻¹, respectively. Besides, the on-rate (kon) in [1] worked out at 1.95e+06 M⁻¹ s⁻¹; in [2], 358000 M⁻¹ s⁻¹. Besides, the binding result in test [6] and in test [7] was “no binding” in each case.

B4: F02 (antibody, human IgG1, kappa, V domains shown)
VH: EVQLLESGGGLVQPGGSLRLSCAASGFTFSRYAMSWVRQAPGKGLEWVSGISGSGGATYYADSVKGRFTISRDNSKNTLYLQMNSLRAEDTAVYYCAKDPLSLLLGYFDYWGQGALVTVSS
VL: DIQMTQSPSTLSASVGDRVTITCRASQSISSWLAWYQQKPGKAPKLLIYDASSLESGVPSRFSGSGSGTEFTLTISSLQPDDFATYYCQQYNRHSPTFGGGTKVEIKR
notes: Human IgG; also called F02 variant; F02 optimized antibody
B4: in [8], the Kd was 2.63 nM, the koff came out at 0.000313 s⁻¹ and the kon came to 119000 M⁻¹ s⁻¹. In [9], binding was put at a Kd of 0.738 nM, the koff came to 3.46e-05 s⁻¹ and the kon was found to be 46900 M⁻¹ s⁻¹. In [10], the binding result was “no binding”. For the same molecule, in test [11], the binding result is listed as “no binding”.

B5: A01 (antibody, human IgG1, kappa, V domains shown)
VH: QLQLQESGPGLVKPSETLSLTCTVSGGSISSSSYAWGWIRQPPGKGLEWIGSIYYSGSTYYNPSLKSRVTISVDTSKNQFSLKLSSVTAADTAVYYCARDSGIGYSYASSHGYYYYMDVWGKGTTVTVSS
VL: EIVLTQSPATLSVSPGERATLSCRASQSVGSNLAWYQQKPGQAPRLLIYGASTRATGIPARFSGSGSGTEFTLTISSLQSEDFAVYYCQQYFHFPLTFGGGTKVEIKR
notes: Human IgG from yeast libraries; also called A01 Parent; A01 (naïve parent)
Regarding B5, the dissociation constant Kd was 1150 nM in [12] and 1.21 nM in test [13]. Moreover, the koff was 0.198 s⁻¹ in [12] and 0.000128 s⁻¹ in test [13]. For the same molecule, the kon in test [12] worked out at 172000 M⁻¹ s⁻¹; in test [13] it was 106000 M⁻¹ s⁻¹. Moreover, the binding result in [14] and in [15] was “no binding” each time.

B6: G02 (antibody, human IgG1, kappa, V domains shown)
VH: QVQLQESGPGLVKPSQTLSLTCTVSGGSISSGSYYWSWIRQHPGKGLEWIGYIYYSGSTYYNPSLKSRVTISVDTSKNQFSLKLSSVTAADTAVYYCARGLGMYYHVPFDIWGQGTMVTVSS
VL: EIVLTQSPATLSLSPGERATLSCRASQSVSSYLAWYQQKPGQAPRLLIYDASNRATGIPARFSGSGSGTDFTLTISSLEPEDFAVYYCQQYFHWPPTFGGGTKVEIKR
notes: Human IgG
In the case of B6, the Kd was determined as 58 nM in test [16] and 1.48 nM in test [17]. Also, the koff worked out at 0.0661 s⁻¹ in test [16] and 0.000275 s⁻¹ in [17]. Also, the kon in test [16] came out at 1.14e+06 M⁻¹ s⁻¹; in test [17] it was 186000 M⁻¹ s⁻¹. Besides, the binding result in test [18] and in test [19] was “no binding” in each case.
